From paper PMC5095173, “Disulfide-activated protein kinase G Iα regulates cardiac diastolic relaxation and fine-tunes the Frank–Starling response” (Nature Communications, 2016)

Tests used:
[1] = test system: PKGIα (analogue-sensitive C42S/M438G), cGMP-activated; assay: Chemical genetic phosphoproteomic screen, cGMP-activated PKGIα C42S/M438G versus unactivated control; assay type: biochemical, human PKGIα; substrates in rat heart homogenate; details: control = PKGIα C42S/M438G
Procedure, shortened: (§1)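 Analogue-sensitive human PKGIα mutants (M438G, air-oxidized to disulfide dimer; C42S/M438G, cGMP-activated), expressed in 293-F cells, thiophosphorylate substrates in rat left-ventricle lysate (20 mg ml) using N6-alkylated ATPγS. Thiophosphopeptides are recovered by covalent capture and identified with sites by LC–MS/MS, each compared against an unactivated control.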

[2] = test system: PKGIα (analogue-sensitive M438G), disulfide-activated; assay: Chemical genetic phosphoproteomic screen, disulfide-activated PKGIα M438G versus unactivated control; assay type: biochemical, human PKGIα; substrates in rat heart homogenate; details: control = PKGIα C42S/M438G
Procedure, shortened: as §1

Molecule	log2 fold change cGMP vs Control [1]	log2 fold change Disulfide vs Control [2]
Crip2 pS19 (protein, UniProt P36201 1-208, looked up, phosphorylated at S19) Cysteine-rich protein 2: MASKCPKCDKTVYFAEKVSSLGKDWHKFCLKCERCNKTLTPGGHAEHDGKPFCHKPCYATLFGPKGVNIGGAGSYIYEKPPTEAPQVTGPIEVPVVRTEERKTSGPPKGPSKASSVTTFTGEPNMCPRCNKRVYFAEKVTSLGKDWHRPCLRCERCSKTLTPGGHAEHDGQPYCHKPCYGILFGPKGVNTGAVGSYIYDKDPEGTVQP	2.804	1.661
Dync1li1 pT408 (protein, UniProt Q9QXU8 1-523, looked up, phosphorylated at T408) Cytoplasmic dynein 1 light …: MAAVGRVGSFGSSPPGLASTYASGPLANELASGSGGPAAGDDEDGQNLWSRILREVSTRSRSKLPTGKNVLLLGEDGAGKTSLIRRIQGIEEYKKGRGLEYLYLNVHDEDRDDQTRCNVWILDGDLYHKGLLKFSLDALSLRDTLVMLVVDMSKPWTALDSLQKWASVVREHVDKLKIPPEEMKEMEQKLIRDFQEYVEPGEDFPASPQRRATAAQEDRDDSVVLPLGADTLTHNLGLPVLVVCTKCDAISVLEKEHDYRDEHFDFIQSHIRKFCLQYGAALIYTSVKENKNIDLVYKYIVQKLYGFPYKIPAVVVEKDAVFIPAGWDNDKKIGILHENFQTLKIEDNFEDIITKPPVRKFVHEKEIMAEDDQVFLMKLQSLLAKQPPTAAGRPVDASPRVPGGSPRTPNRSVSSNVASVSPIPAGSKKIDPNMKAGATSEGVLANFFNSLLSKKTGSPGGPGVGGSPGGGAAGASTSLPPSAKKSGQKPVLSDVHAELDRITRKPASVSPTTPPSPTEGEAS	3.758	1.949
Dync1li1 pS412 (protein, UniProt Q8R1Q8 1-523, looked up, phosphorylated S412) Cytoplasmic dynein 1 light …: MAAVGRVGSFGSSPPGLASTYASGPLANELASGSGGPAAGDDEDGQNLWSCILSEVSTRSRSKLPTGKNVLLLGEDGAGKTSLIRRIQGIEEYKKGRGLEYLYLNVHDEDRDDQTRCNVWILDGDLYHKGLLKFSLDALSLRDTLVMLVVDMSKPWTALDSLQKWASVVREHVDKLKIPPEEMKEMEQKLIRDFQEYVEPGEDFPASPQRRTTGAQEDRGDSVVLPLGADTLTHNLGLPVLVVCTKCDAISVLEKEHDYRDEHFDFIQSHIRKFCLQYGAALIYTSVKENKNIDLVYKYIVQKLYGFPYKIPAVVVEKDAVFIPAGWDNDKKIGILHENFQTLKVEDNFEDIITKPPVRKFVHEKEIMAEDDQVFLMKLQSLLAKQPPTAAGRPVDASPRVPGGSPRTPNRSVSSNVASVSPIPAGSKKIDPNMKAGATSEGVLANFFNSLLSKKTGSPGGPGVGGSPGGGAAGASPSLPPSAKKSGQKPVLSDVHAELDRITRKPASVSPTTPTSPTEGEAS	4.149	1.658
Eml1 pS108 (protein, UniProt Q4V8C3 1-814, looked up, phosphorylated at S108) Echinoderm …: MEDGFSSYSSLYDTSSLLQFCNDDSASAASSMEISDRIASLEQRVQMQEDDIQLLKSALADVVRRLNITEEQQAVLNRKGPTKARPLGQTLPLRTTVNNGTVLPKKPSASLPSPSGSRKEMVVPVTKSINRTSSSERVSPGGRRESSGDSKGSRNRTGSTSSSSSGKKNSESKPKEPTFSPEEGYVKMFLRGRPVTMYMPKDQVDSYSLEAKAELPTKRLKLEWVYGYRGRDCRNNLYLLPTGETVYFIASVVVLYNVEEQLQRHYAGHNDDVKCLAVHPDRITIATGQVAGTSKDGKQLPPHVRIWDSVTLNTLHVIGIGFFDRAVTCIAFSKSNGGSHLCAVDDSNDHVLSVWDWQREERLADVKCSNEAVFAADFHPTDTNIIVTCGKSHLYFWTLEGNSLNKKQGLFEKQEKPKFVLCVTFSENGDTITGDSSGNILVWGKGTNRISYAVQGAHEGGIFALCMLRDGTLVSGGGKDRRLISWNGNYQKLHKAEIPEQFGPIRTVAEGKGNVILIGTTRNFVLQGTLTGDFTPITQGHTDELWGLAIHASKPQFLTCGHDKHATLWDAVGHRPVWDKIIEDPAQSSGFHPSGSVVAVGTLTGRWFVFDTETKDLVTVHTDGNEQLSVMRYSPDGNFLAIGSHDNCIYIYGVSDNGRKYTRVGKCSGHSSFITHLDWSVNSQFLVSNSGDYEILYWVPSACKQVVSVETTRDIEWATYTCTLGFHVFGVWPEGSDGTDINAVCRAHEKKLLSTGDDFGKVHLFSYPCSQFRAPSHIYSGHSSHVTNVDFLCEDSHLISTGGKDTSIMQWRVI	3.948	1.496
